Data from patent US10000775B2, “Biosynthesis of 1-undecene and related terminal olefins” (The Regents of the University of California, priority 2013, dated 2018).

Columns and labels:
[1] = Initial production rate determination under single turnover conditions; format: biochemical; details: single turnover condition
Protocol: To determine the initial rates of 1-alkene production under the single turnover conditions, the O2-saturated buffer solution (50 mM MES, pH 6.2, 100 mM NaCl) was mixed with an equal volume of an O2-free solution containing 50 mM MES buffer (pH 6.2), 100 mM NaCl, 200 μM (NH4)2Fe(SO4)2, 0.2-20 μM PFL_4321, and various concentrations of substrate (2-300 μM), so that the final mixture contained 50 mM MES buffer (pH 6.2), 100 mM NaCl, 0.1-10 μM PFL_4321, 100 μM (NH4)2Fe(SO4)2, and various concentrations of substrate (1-150 μM). The reactions were carried out in sealed GC vials and quenched by injecting 1 M NaOH at 2, 4, 6, 8, 10, 20, 30, 40, 50, 60 seconds. The productions of 1-alkenes were analyzed by SPME-GCMS analysis.

[2] = test system: E. coli; test: 1-undecene production in E. coli overexpressing PFL_4321, PFL_0203 or homologs, with or without UcFatB2; format: cell-based; details: E. coli BL21 Star (pZR60), headspace GC-MS
Protocol: E. coli, P. aeruginosa PAO-1, and P. aeruginosa PA14 strains were grown in 5 mL of LB medium overnight at 37° C., while all the other Pseudomonas and Acinetobacter strains were grown at 30° C. […] The culture was shaken in a sealed 20 mL headspace vial (Agilent certified) containing a stir bar at 30° C. for 36 hr. After incubation, an SPME fiber (30 μm polydimethylsiloxane, Supelco, Sigma-Aldrich Group, Bellefonte, Pa.) was manually inserted into the headspace vial and incubated at 25° C. for 12.5 min. GC-MS analysis was conducted on a Varian CP-3800 instrument equipped with a Varian 320-MS. […] The signals of the 1-alkenes were identified and quantified by comparison with authentic samples (MP Biomedicals), which were diluted in ethyl acetate, added to 5 mL of culture medium in a sealed headspace vial, and sampled by the same SPME-GCMS method as described above.
[…] 1-Undecene production was detected by using the SPME-GCMS method. […]
To investigate whether PFL_0203 was facilitating the production of 1-undecene, this gene was individually expressed in E. coli and the cells were monitored for 1-undecene production. […]

[3] = Stoichiometry determination in single-turnover reactions; format: biochemical
Protocol: FIG. 27 illustrates the requirement for O2 for PFL_4321 activity.
To investigate 1-undecene formation and the O2 consumption, 0.5 mL of reaction mixture was prepared to contain 50 mM MES buffer (pH 6.2), 300 mM NaCl, 45 μM PFL_4321-Fe(II), and 500 μM LA (25 mM stock solution of LA sodium salt was prepared in 2% tergitol; tergitol is not required for <150 μM of LA). MES buffer (pH 6.2) was selected to reach slightly higher enzymatic activity than other buffers such as Bis-Tris (pH 6.0-7.0), Tris (pH 7.5-8.5), MOPS (pH 6.5-7.5), and HEPES (pH 6.8-8.0). The reaction was performed in a sealed headspace vial, initiated by adding PFL_4321 at room temperature and quenched by injecting equal volume of 5 M NaOH. 1-undecene production was analyzed and quantified using the SPME-GCMS method. The correlations of total 1-undecene produced and enzyme used were further determined varying PFL_4321 concentrations (40-1000 μM), and similar single turnover reactions were obtained in all assays (˜0.7-0.8 molecule of 1-undecene per molecule of PFL_4321-Fe(II)). O2 concentration was measured in a sealed reaction chamber (0.5 mL) with an integrated oxygen electrode unit (Oxygraph Plus System, Hansatech Instruments, UK). For the control group, LA was omitted from the reaction mixture.

[4] = measured stoichiometry, aerobic

B1: PFL_4321: protein of 261 amino acids from Pseudomonas fluorescens Pf-5; non-heme iron (II)-dependent enzyme converting medium-chain fatty acids into terminal olefins (protein, listed as Pseudomonas fluorescens)
chain: MIDTFSRTGPLMEAASYPAWTQQLIQDCSESKRRVVEHELYQRMRDNKLSAKVMRQYLIGGWPVVEQFALYMAQNLTKTRFARHPGEDMARRWLMRNIRVELNHADYWVHWSRAHGVTLEDLQAQQVPPELHALSHWCWHTSSADSLIVAIAATNYAIEGATGEWSALVCSNGIYAAAFPEEDRKRAMKWLKMHAQYDDAHPWEALEIIVTLAGLNPTKALQAELRQAICKSYDYMYLFLERCMQQEKTAVTRERLALAEG
initial rate of 1-undecene production [1]: 0.06±0.002 mol 1-undecene/(mol PFL_4321-Fe(II) second)
1-undecene produced [2]: ~5 µg/mL
1-undecene produced per molecule of PFL_4321-Fe(II) [3, 4]: approximately one
O2 consumed per molecule of PFL_4321-Fe(II) [3, 4]: approximately one
total 1-undecene produced per enzyme used ([3]; single turnover reactions, PFL_4321 40-1000 μM): 0.7-0.8 molecule of 1-undecene per molecule of PFL_4321-Fe(II)
